Series [1] has as its target T1, C-reactive protein (UniProt P02741 19-224).
T1 sequence: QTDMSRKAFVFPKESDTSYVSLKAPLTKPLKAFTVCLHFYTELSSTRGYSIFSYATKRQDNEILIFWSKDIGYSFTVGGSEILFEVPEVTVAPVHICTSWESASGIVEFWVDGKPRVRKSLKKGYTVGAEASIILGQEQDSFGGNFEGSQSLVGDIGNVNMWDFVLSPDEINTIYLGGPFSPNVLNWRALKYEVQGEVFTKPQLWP
As to the kind of experiment: pull-down.

For series [2], the target named is T1, C-reactive protein. As to the kind of experiment: pull-down. This is another data set of the same source.

Experimental findings from PMC2891049 are described below.

Where two headings read alike, the source gives them in different places.

B1: MB-P (PDGF-BB sensing aptamer) (structured_DNA)
DNA: GATGTCCACGAGGTCTCTGCGGCATCAACAATCTCGAATTTTTTACTCAGGGCACTGCAAGCAATTGTGGTCCCAATGGGCTGAGTATCGTACGCTGCAGGTCGAC
Consider B1, for which the binding result with C-reactive protein [1] is “no binding”.

B2: MB-T (thrombin sensing aptamer) (structured_DNA)
DNA: GATGTCCACGAGGTCTCTATTGCATTCGCACTTCCGATTTTTTCAGTCCGTGGTAGGGCAGGTTGGGGTGACTCGTACGCTGCAGGTCGAC
As for B2, the binding result with C-reactive protein [2] is “no binding”.
